B1: Calreticulin (Homo sapiens), P27797 (parent)
chain: MLLSVPLLLGLLGLAVAEPAVYFKEQFLDGDGWTSRWIESKHKSDFGKFVLSSGKFYGDEEKDKGLQTSQDARFYALSASFEPFSNKGQTLVVQFTVKHEQNIDCGGGYVKLFPNSLDQTDMHGDSEYNIMFGPDICGPGTKKVHVIFNYKGKNVLINKDIRCKDDEFTHLYTLIVRPDNTYEVKIDNSQVESGSLEDDWDFLPPKKIKDPDASKPEDWDERAKIDDPTDSKPEDWDKPEHIPDPDAKKPEDWDEEMDGEWEPPVIQNPEYKGEWKPRQIDNPDYKGTWIHPEIDNPEYSPDPSIYAYDNFGVLGLDLWQVKSGTIFDNFLITNDEAYAEEFGNETWGVTKAAEKQMKDKQDEEQRLKEEEEDKKRKEEEEAEDKEDDEDKDEDEEDEEDKEEDEEEDVPGQAKDEL

Variants of: B1
Details: with gbrap_human GABARAP

Row | Variant | effect of a mutation on the interaction
1 | W200A | disrupting interaction

— IntAct's records for PubMed 19154346
